Numbering of substitutions follows the chain as printed. In names and notes the source's numbering stands.
B1: FLAG-tagged 7xAla/L107C NEMO (natural protein, human, UniProt Q9Y6K9 1-419, looked up)
chain: MNRHLWKSQLAEMVQPSGGPAADQDVLGEESPLGKPAMLHLPSEQGAPETLQRALEENQELRDAIRQSNQILRERAEELLHFQASQREEKEFLMAKFQEARKLVERCGLEKLDLKRQKEQALREVEHLKRAQQQMAEDKASVKAQVTSLLGELQESQSRLEAATKEAQALEGRARAASEQARQLESEREALQQQHSVQVDQLRMQGQSVEAALRMERQAASEEKRKLAQLQVAYHQLFQEYDNHIKSSVVGSERKRGMQLEDLKQQLQQAEEALVAKQEVIDKLKEEAEQHKIVMETVPVLKAQADIYKADFQAERQAREKLAEKKELLQEQLEQLQREYSKLKASAQESARIEDMRKRHVEVSQAPLPPAPAYLSSPLALPSQRRSPPEEPPDFCCPKCQYQAPDMDTLQIHVMECIE
B2: 9xHis-SUMO-NEMO(44–111)(des3C/L107C), covalent dimer (domain or fragment, human, UniProt Q9Y6K9 44-111, looked up)
chain: {9xHis‑SUMO}-EQGAPETLQRALEENQELRDAIRQSNQILRERAEELLHFQASQREEKEFLMAKFQEARKLVERCGLEK
modifications: also: covalent dimer via interchain disulfide at Cys107
B3: 9xHis-SUMO-NEMO(44–111)(des2C/C54/L107C), covalent dimer (domain or fragment, human, UniProt Q9Y6K9 44-111, looked up)
chain: {9xHis‑SUMO}-EQGAPETLQRCLEENQELRDAIRQSNQILRERAEELLHFQASQREEKEFLMAKFQEARKLVERCGLEK
modifications: also: covalent dimer via interchain disulfides at Cys54 and Cys107
B4: 9xHis-SUMO-NEMO(1–120)(des3C/C54), oxidised covalent dimer (domain or fragment, human, UniProt Q9Y6K9 1-120, looked up)
chain: MNRHLWKSQLAEMVQPSGGPAADQDVLGEESPLGKPAMLHLPSEQGAPETLQRCLEENQELRDAIRQSNQILRERAEELLHFQASQREEKEFLMAKFQEARKLVERLGLEKLDLKRQKEQ
modifications: interchain disulfide bond at Cys54
B5: 9xHis-SUMO-NEMO(1–120)(des3C/C54/L107C), covalent dimer (domain or fragment, human, UniProt Q9Y6K9 1-120, looked up)
chain: B4 chain with L107C
modifications: interchain disulfide bonds at Cys54 and Cys107
B6: 9xHis-SUMO-NEMO(1–120)(des4C/L107C), covalent dimer (domain or fragment, human, UniProt Q9Y6K9 1-120, looked up)
chain: B4 chain with C54A, L107C
modifications: interchain disulfide bond at Cys107
B7: 9xHis-SUMO-NEMO(44–111)(des2C/C54), covalent dimer (domain or fragment, human, UniProt Q9Y6K9 44-111, looked up)
chain: {9xHis‑SUMO}-EQGAPETLQRCLEENQELRDAIRQSNQILRERAEELLHFQASQREEKEFLMAKFQEARKLVERLGLEK
modifications: also: covalent dimer via interchain disulfide at Cys54

Biological target: the molecule itself
Experiment: cross-linking

Stoichiometry N, 2:
B1

Biological target: the molecule itself
Experiment: cross-linking
Remark: another data set of the same source

Stoichiometry N, 2:
B2, B3, B4, B5, B6, B7

Source: paper PMC4278678 (Biochemistry, 2014)
